T1: human Fn14 (human, UniProt Q9NP84 28-129)
T1 sequence: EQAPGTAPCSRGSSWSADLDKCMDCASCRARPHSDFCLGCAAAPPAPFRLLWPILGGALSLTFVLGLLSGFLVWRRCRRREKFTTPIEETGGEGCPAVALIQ

T2: Histidine tagged mouse Fn14 extracellular domain (mouse, UniProt Q9CR75 28-80)
T2 construct: extracellular domain; also called mFn14; not shown: (His)6 tag from pET-15b
T2 sequence (looked up): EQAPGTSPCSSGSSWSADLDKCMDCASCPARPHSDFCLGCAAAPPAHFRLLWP

B1: CRCBT-06-001 (antibody, IgG2b, V domains shown)
VH: QVQLQQSGGGLVQPGGSMKLSCIASGFTFSSYWMSWVRQSPEKGLEWVAEIRSKSDNYATHYAESVKGKFTISRDDSKSRFFLQMNNLRAEDTGIYYCSSTYADYFHYWGQGTDLTVSS
VL: DIVMTQTPASLAVSLGQRATISCRASQSVSTSTYSYMHWYQQKPGQPPKLLIKYASSLESGVPARFSGSGSGTDFTLNIHPVEEDDTATYYCQHSWEIPYTFGGGTKLEIKR
B2: CRCBT-06-002 (antibody, IgG1, V domains shown)
VH: EVKLQQSGGGLVQPGGSMKLSCVASGFTFSYYWMNWVRQSPEQGLEWIAEIRLQSNDYPTHYAESVKGRFTISRDDSKNSVYLQMNNLRPEDTGIYYCACRYADYFDHWGQGTTLTVSS
VL: DTVLTQSPASLVVSLGQRATISCRASQSVSTSDYSYIHWYQQKPGQPPKFLIKYASNRDSGVPARFSGSGSGTDFTLNIHPVEEDDTAIYYCQHSWEIPPTFGAGTKLELQR

Assays:
human Fn14 [1] = biological target: T1, human Fn14; test: cell-based or functional assay
human Fn14 [2] = biological target: T1, human Fn14; test: cell-based or functional assay; remark: listed apart in the source
[3] = biological target: phage expressed hFn14 mutant R58A (human, UniProt Q9NP84 28-77); test: phage ELISA (Method 2), antibody on plate, phage dilution 1/X on the x axis
Text: FIG. 26 is a graphical representation showing results of an ELISA testing the reactivity of mutant hFn14 phage construct comprising a R58A mutation with the anti-Fn14 monoclonal antibodies CRCBT-06-001, CRCBT-06-002, CRCBT-06-004 compared to ITEM-1 and ITEM-4. Binding was detected using Biotin-conjugated anti-M13-phage monoclonal antibody followed by HRP-conjugated Streptavidin and TMB substrate. Optical density at 450 nm was quantified using a Spectramax spectrophotometer. Error bars for each dilution represent the standard deviation of duplicate assays. X axis=dilution of phage. Methods according to Epitope mapping using phage expressed Fn14—Method 2
(§1) The wells of Maxisorp immunoplates (Nunc) were coated overnight at 4° C. with the target monoclonal antibodies or recombinant Tweak-Fc at a concentration of 1.5 μg/ml in PBS. mAb 5G8 was used as a negative control for ELISA plates coated with tested antibodies. […] 10-fold serial dilutions of phage were made using PBS solution and phage dilutions were added to the coated, blocked ELISA plates for 1 hour, shaking at room temperature. […]
Method A: HRP-conjugated anti-M13-phage antibody (GE Healthcare) at a 1/5000 dilution in PBS was then added to the wells of the ELISA plates for 1 hour, shaking at room temperature. […] Optical density at 450 nm was quantified using a Spectramax absorbance spectrophotometer.

[4] = biological target: T2, Histidine tagged mouse Fn14 …; test: ELISA with purified His-tagged mouse Fn14; x axis 'Log (c)' without unit, µg/ml by the legend
[5] = biological target: T3, His tagged hFn14 extracellular region mutant R56P (human, UniProt Q9NP84 28-77); test: ELISA with purified His-tagged hFn14 R56P; x axis 'Log (c)' without unit, µg/ml by the legend
T3 construct: also called R56P mutant; not shown: (His)6 tag

[6] = biological target: T4, His tagged hFn14 extracellular region mutant R56K (human, UniProt Q9NP84 28-77); test: ELISA with purified His-tagged hFn14 R56K; x axis 'Log (c)' without unit, µg/ml by the legend
T4 construct: not shown: (His)6 tag

[7] = biological target: phage expressed hFn14 mutant L65A (human, UniProt Q9NP84 28-77); test: phage ELISA (Method 2): antibody coated on the plate, 10-fold dilutions of phage displaying hFn14 L65A; biotin anti-M13 antibody, streptavidin-HRP, TMB, OD 450 nm; x axis = dilution of phage
Text: (§2) For mutants P59A and F63A, binding was detected using HRP-conjugated anti-M13-phage polyclonal IgG and TMB substrate. For all other mutants binding was detected using Biotin-conjugated anti-M13-phage monoclonal antibody followed by HRP-conjugated Streptavidin and TMB substrate. Optical density at 450 nm was quantified using a Spectramax spectrophotometer. Error bars for each dilution represent the standard deviation of duplicate assays. FIG. 27A wild type Fn14, FIG. 27B W42A, FIG. 27C S54A, FIG. 27D A57G, FIG. 27E P59A, FIG. 27F S61A, FIG. 27G F63A, FIG. 27H L65A. In all cases error bars represent the standard deviation. X axis=dilution of phage. Methods according to Epitope mapping using phage expressed Fn14—Method 2
as §1, with “temperature. Phage was subsequently removed from the wells and the ELISA plates were washed three times with PBS/0.05% Tween 20.” for “temperature.”

[8] = biological target: phage expressed hFn14 mutant F63A (human, UniProt Q9NP84 28-77); test: phage ELISA (Method 2): antibody coated on the plate, 10-fold dilutions of phage displaying hFn14 F63A; HRP-conjugated anti-M13 phage polyclonal IgG, TMB, OD 450 nm; x axis = dilution of phage
Text: as §2
as §1, with “temperature. Phage was subsequently removed from the wells and the ELISA plates were washed three times with PBS/0.05% Tween 20.” for “temperature.”

Binder | NFκB-GFP reporter in HEK293T cells (human Fn14 [1]) [µg/mL] | % Agonist, IL-8 secretion by A375 cells (human Fn14 [2]) [%] | binding result [3] | binding result [4] | binding result [5] | binding result [6] | binding result [7] | binding result [8] | % Antagonist, IL-8 secretion by A375 cells (human Fn14 [2]) [%]
B1 | 1 | 128 | binds | binds | binds | binds | binds | binds | 
B2 | 0.1 | 11 | binds | binds | binds | binds | binds | binds | 94

Source: US20200239586A1 (LA TROBE UNIVERSITY, published 2020)
